The values that follow are results of earlier work, collected in paper PMC5914118, “Exploiting the Concept of Multivalency with ^68Ga- and ^89Zr-Labelled Fusarinine C-Minigastrin Bioconjugates for Targeting CCK2R Expression” (Contrast Media & Molecular Imaging, 2018).

This data set addresses T1, human CCK2R (A431-CCK2R cells) (Homo sapiens, UniProt P32239).
T1 construct: expressed in transfected cells; host or cells: A431 human epidermoid carcinoma cells, stably transfected (plasmid pCR3.1); gift from Aloj
T1 sequence (P32239 1-447): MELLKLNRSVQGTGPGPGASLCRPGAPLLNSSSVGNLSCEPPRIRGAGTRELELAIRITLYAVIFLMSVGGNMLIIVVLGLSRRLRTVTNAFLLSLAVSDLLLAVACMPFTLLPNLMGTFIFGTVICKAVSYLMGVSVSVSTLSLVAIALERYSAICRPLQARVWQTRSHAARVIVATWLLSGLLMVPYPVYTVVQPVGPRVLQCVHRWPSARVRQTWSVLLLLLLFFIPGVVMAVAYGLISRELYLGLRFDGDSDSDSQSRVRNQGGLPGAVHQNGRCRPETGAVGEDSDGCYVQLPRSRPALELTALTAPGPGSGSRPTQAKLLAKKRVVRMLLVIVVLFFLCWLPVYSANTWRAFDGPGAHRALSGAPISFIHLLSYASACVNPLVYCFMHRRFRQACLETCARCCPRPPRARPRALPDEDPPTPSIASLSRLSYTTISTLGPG
Also on record: method as in PMID 28462989. To be noted: reference peptide, whole A431-CCK2R cells; cited from earlier work.

As for “DOTA-MG11: reference peptide: DOTA-conjugated minigastrin analogue MG11 (EAYGWMDF; synthetic human minigastrin analogue)”, the IC50 (commonly the concentration needed to halve the response being measured) was 9.5 ± 0.5 nM.
